As a reminder, the stoichiometry N is the number of molecules, sites or subunits per partner or assembly.

Among the data in paper PMC6930364 are stoichiometry N values, retold here.

The target of the assay is L-DOPA dioxygenase from Streptomyces sclerotialus (SsDDO) (Streptomyces sclerotialus). Nature of the assay: crystal structure.

Substance “L-DOPA dioxygenase from Streptomyces sclerotialus (SsDDO) (enzyme)” gave a stoichiometry N of 2.
